Five proteins from patent US20070298412A1 (ZAKRYTOE AKTSIONERNOE OBSCHESTVO EVROGEN, published 2007) can be followed below.

Series [1] concerns the molecule itself. Briefly: gel electrophoresis of non-heated samples and gel filtration on Sephadex-100 (homodimer). Here is the method:
Under these conditions these FPs migrated as yellow fluorescent band at about 50 kDa. […] Purified protein samples (˜1 mg/ml) were loaded onto a Sephadex-100 column (0.7×60 cm) and eluted with a solution of 50 mM phosphate buffer (pH 7.0) and 100 mM NaCl. EGFP, HcRed1 and DsRed2 (Clontech) were used as monomer, dimer and tetramer standards, respectively.
In general terms: Size exclusion chromatography separates by hydrodynamic size, large species first.

Series [2] concerns the molecule itself. Briefly: gel filtration (self-association).

Numbering of substitutions follows the chain as printed. Numbers in names are those of the source.

B1: phiYFP, yellow fluorescent protein from Phialidium sp. (wild type) (other)
chain: MSSGALLFHGKIPYVVEMEGNVDGHTFSIRGKGYGDASVGKVDAQFICTTGDVPVPWSTLVTTLTYGAQCFAKYGPELKDFYKSCMPEGYVQERTITFEGDGVFKTRAEVTFENGSVYNRVKLNGQGFKKDGHVLGKNLEFNFTPHCLYIWGDQANHGLKSAFKIMHEITGSKEDFIVADHTQMNTPIGGGPVHVPEYHHITYHVTLSKDVTDHRDNMSLVETVRAVDCRKTYL
notes: Recombinant protein from the whole coding region, expressed in E. coli and purified on TALON; Found to be a homodimer by gel electrophoresis of non-heated samples and by gel filtration; not shown: N-terminal six-histidine tag from the pQE30 vector
On to B1, for which the binding result in series [1] is recorded as “binds”.

B2: phiYFP-M1 (phiYFP mutant with E88D, V103N, M166C, E174G, I201M, T202S, T206K, V221K) (other)
chain: B1 chain with E88D, V103N, M166C, E174G, I201M, T202S, T206K, V221K
notes: No tag is stated for the gel-filtration sample
On to B2, for which the binding result in series [2] is “no binding”.

B3: phiYFP-Y1 (phiYFP mutant with S2P, E174G, I201M) (other)
chain: B1 chain with S2P, E174G, I201M
notes: Found to be a homodimer
B3: the binding result in series [1] is recorded as “binds”.

B4: phiYFP-M0 (phiYFP mutant with S2P, V103N, M166R, E174G, Y198N, I201M, T202S, T206K, V221K) (other)
chain: B1 chain with S2P, V103N, M166R, E174G, Y198N, I201M, T202S, T206K, V221K
notes: No tag is stated for the tested sample
Take B4: the binding result in series [2] was “no binding”.

B5: S3-2 red fluorescent mutant of hm2CP (other)
chain: MEGGPALFQSDMTFKIFIDGVVNGQKFTIVADGSSKFPHGDFNVHAVCETGKLPMSWKPICHLIQYGEPFFARYPNGISHFAQECFPEGLSIDRTVRFENDGTMTSHHTYELDGTCVVSRITVNCDGFQPDGPIMRDQLVDILPNETHMFPHGPNAVRQLAFIGFTTADGGLMMSHFDSKMTFNGSRAIKIPGPHFVTTITKQMKDTSDKRDHVCQREVTYAHSVPRITSAI
notes: No tag is stated for the gel-filtration sample; also called S3-2 red fluorescent protein
Turning to B5, in series [2], the binding result was “no binding”.
